Reference: PMC5173322, “Neurodegenerative disease mutations in TREM2 reveal a functional surface and distinct loss-of-function mechanisms” (eLife, 2016)
Numbering of substitutions follows the chain as printed. In names and notes the source's numbering stands.

B1: human TREM2 ectodomain Y38C (domain or fragment, UniProt Q9NZC2 19-134, looked up)
chain: HNTTVFQGVAGQSLQVSCPCDSMKHWGRRKAWCRQLGEKGPCQRVVSTHNLWLLSFLRRWNGSTAITDDTLGGTLTITLRNLQPHDAGLYQCQSLHGSEADTLRKVLVEVLADPLD
notes: TREM2, human, ectodomain, limits as the WT ectodomain (amino acids 19-134), Nasu-Hakola disease mutation Y38C; it was detected by anti-6His Western blot; also called NHD mutant Y38C; source: Freestyle 293F cells, transfected, secreted; harvested for preparative SEC; not shown: His6, C-terminal, kept
B2: human TREM2 ectodomain T66M (domain or fragment, UniProt Q9NZC2 19-134, looked up)
chain: B1 chain with C20Y, T48M
notes: TREM2, human, ectodomain, limits as the WT ectodomain (amino acids 19-134), Nasu-Hakola disease mutation T66M; it was detected by anti-6His Western blot; also called NHD mutant T66M; source: Freestyle 293F cells, transfected, secreted; harvested for preparative SEC; not shown: His6, C-terminal, kept
B3: human TREM2 ectodomain V126G (domain or fragment, UniProt Q9NZC2 19-134, looked up)
chain: B1 chain with C20Y, V108G
notes: TREM2, human, ectodomain, limits as the WT ectodomain (amino acids 19-134), Nasu-Hakola disease mutation V126G; it was detected by anti-6His Western blot; also called NHD mutant V126G; source: Freestyle 293F cells, transfected, secreted; harvested for preparative SEC; not shown: His6, C-terminal, kept

Molecular target: the molecule itself
Assay: SEC; preparative SEC of NHD mutant ectodomains harvested from 293F suspension cells; fractions analysed by anti-6His Western blot

Binding result, binds:
B1, B2, B3
